Test results: publication PMC7055391

Target: Cqm1 receptor protein (functional form; residues 23–560) (Culex quinquefasciatus)
Assay: small-angle neutron scattering (SANS); single proteins in 100% D2O buffer C (25 mM HEPES pH 7.5, 25 mM NaCl), 25°C; Cqm1 3.3 mg/ml, hBinB 3.3 mg/ml; ab initio IFT modelling and fits against crystal structures

- stoichiometry N: 2
Substance: Cqm1 receptor protein (functional form; residues 23–560)
